Laboratory results as given in patent publication US20240366663A1.

Target: CD20 (UniProt P11836)
Test: cell-based or functional assay

Sequence of UniProt P11836 (P11836 whole entry): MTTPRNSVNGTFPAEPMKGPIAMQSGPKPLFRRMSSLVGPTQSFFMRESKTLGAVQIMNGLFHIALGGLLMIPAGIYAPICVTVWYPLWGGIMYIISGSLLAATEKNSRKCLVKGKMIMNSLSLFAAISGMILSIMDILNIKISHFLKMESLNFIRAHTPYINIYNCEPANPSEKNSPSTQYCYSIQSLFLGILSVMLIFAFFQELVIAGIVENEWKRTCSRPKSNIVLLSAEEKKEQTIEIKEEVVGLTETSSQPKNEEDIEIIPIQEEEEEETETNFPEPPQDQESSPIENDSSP

| EC:50 of percent specific lysis of ARH-77 cells, 4 h caspase assay, AB-202 + 0.01 µg/mL Obinutuzumab | EC:50 of percent specific lysis of ARH-77 cells, 4 h caspase assay, AB-202 + 0.1 µg/mL Obinutuzumab | EC:50 of percent specific lysis of ARH-77 cells, 4 h caspase assay, AB-202 + 1 µg/mL Obinutuzumab | EC:50 of percent specific lysis of ARH-77 cells, 4 h caspase assay, CBNK + 0.01 µg/mL Obinutuzumab | EC:50 of percent specific lysis of ARH-77 cells, 4 h caspase assay, CBNK + 0.1 µg/mL Obinutuzumab | EC:50 of percent specific lysis of ARH-77 cells, 4 h caspase assay, CBNK + 1 µg/mL Obinutuzumab | EC:50 of percent specific lysis of ARH-77 cells, 4 h caspase assay, AB-202 + 0.1 µg/mL Rituximab | EC:50 of percent specific lysis of ARH-77 cells, 4 h caspase assay, AB-202 + 1 µg/mL Rituximab | EC:50 of percent specific lysis of ARH-77 cells, 4 h caspase assay, CBNK + 0.01 µg/mL Rituximab | EC:50 of percent specific lysis of ARH-77 cells, 4 h caspase assay, CBNK + 0.1 µg/mL Rituximab | EC:50 of percent specific lysis of ARH-77 cells, 4 h caspase assay, CBNK + 1 µg/mL Rituximab | Substance | fold increase of AB-202 killing activity on ARH-77 cells with 1 µg/mL Obinutuzumab versus no antibody [fold] | fold increase of CBNK killing activity on ARH-77 cells with 1 µg/mL Obinutuzumab versus no antibody [fold] |
| --- | --- | --- | --- | --- | --- | --- | --- | --- | --- | --- | --- | --- | --- |
| 1.21 | 1.05 | 0.97 | 2.99 | 0.85 | 0.37 | – | – | – | – | – | Obinutuzumab (antibody) | 2.9 | 66.5 |
| – | – | – | – | – | – | 1.56 | 1.49 | 11 | 3.25 | 2.39 | Rituximab (antibody) | – | – |
